Test results taken from US20240317834A1, “COMPOSITIONS AND METHODS FOR NEUROLOGICAL DISEASES” (CODA BIOTHERAPEUTICS, INC., priority 2020, published 2024).

Tested on: Lenti-X 293T cells
Experiment: YFP fluorescence quenching anion reporter plate reader assay of engineered receptors stimulated with acetylcholine or a non-native ligand
Format: cell-based
Source text: To screen these mutant LGICs for those having novel response profiles to ligands, an anion reporter assay was developed to assess the function of the LGICs in a high throughput format. In this assay, cells expressing a YFP reporter whose fluorescence is quenched in the presence of anion are transfected with DNA encoding the channel of interest. Upon exposure to ligand, channels that are activated will flux anion, resulting in a dose-dependent quench of the YFP that can be detected on a plate reader. The greater the quench signal (i.e., the more positive the value), the higher the ligand activity on the receptor is.
Lenti-X 293T cells (LX293T, Clontech) were maintained in DMEM containing 10% FBS and 1% penicillin/streptomycin (Invitrogen). […] Two days before assay, cells were split at a density of 20,000 cells/well in a 96-well tissue culture plate coated with poly-d lysine (Thermo Scientific). The next day, the cells were transiently transfected with 0.1 μg of DNA per well using standard Fugene protocol (Promega). On the day of assay, cells were washed 2 times in 1× extracellular solution (1×ECS: 140 mM NaCl, 5 mM KCl, 1 mM MgCl2, 2 mM CaCl2), 10 mM HEPES, 10 mM glucose, pH 7.2, mOsms 300). After the last wash, 100 μL of 1×ECS was added to the wells and the plate was incubated at 37° C. for 30 min. While incubating the plate, the drugs were diluted to a 2× concentration in 1×ECS-NaI (same components as 1×ECS except the 140 mM NaCl was replaced by 140 mM NaI). The plates were then read on a Flexstation3 (Molecular Devices). Each well, 8 wells at a time, of the plate is read for 2 min using a Flexstation3 (Molecular Devices) as follows: 1) a baseline YFP fluorescence is read for 17 sec, 2) 100 μL of ligand is added, and 3) the changes in YFP fluorescence are then measured every 1.3 sec for 1 minute and 43 seconds. The percent quench is calculated from the average fluorescence of the last 10 seconds of the read divided by the baseline average of the first 15 seconds prior to the ligand addition.
FIGS. 1A-1J provide heat maps of the percent quench of YFP fluorescence following stimulation by various doses of either acetylcholine or the non-native ligand as indicated in the Figures. CODA71 (SEQ ID NO: 33) was used as a control, and CODA75 (SEQ ID NO: 29, a non-responding chimeric engineered receptor) was used as the negative control. Quenching of the fluorescence signal, as indicated by blue shaded cells, indicate the level of engineered receptor activation by the non-native ligand at that concentration.

B1: CODA334: engineered chimeric LGIC receptor, L131Q in SEQ ID NO: 33 (protein)
chain: MRCSPGGVWLALAASLLHVSLQGEFQRKLYKELVKNYNPLERPVANDSQPLTVYFSLSLLQIMDVDEKNQVLTTNIWLQMSWTDHYLQWNVSEYPGVKTVRFPDGQIWKPDILLYNSADERFDATFHTNVQVNSSGHCQYLPPGIFKSSCPMDLKNFPMDVQTCKLKFGSWSYGGWSLDLQMQEADISGYIPNGEWDLVGIPGKRSERFYECCKEPYPDVTFTVTMRRRMGYYLIQMYIPSLLIVILSWISFWINMDAAPARVGLGITTVLTMTTQSSGSRASLPKVSYVKAIDIWMAVCLLFVFSALLEYAAVNFVSRQHKELLRFRRKRRHHKSPMLNLFQEDEAGEGRFNFSAYGMGPACLQAKDGISVKGANNSNTTNPPPAPSKSPEEMRKLFIQRAKKIDKISRIGFPMAFLIFNMFYWIIYKIVRREDVHNQ
modifications: synthetic sequence of chimeric LGIC
1 nM CNL001, first column
  YFP fluorescence quenching using CNL001: 76.165%
1 nM CNL001, second column
  YFP fluorescence quenching using CNL001: 78.463%
3 nM brd
  YFP fluorescence quenching using TC-5619/Bradanicline: 41.92%
3 nM var, first column
  YFP fluorescence quenching using Varenicline: −5.192
3 nM var, second column
  YFP fluorescence quenching using Varenicline: −4.327
10 nM CNL001, first column
  YFP fluorescence quenching using CNL001: 79.349%
10 nM CNL001, second column
  YFP fluorescence quenching using CNL001: 78.238%
30 nM brd
  YFP fluorescence quenching using TC-5619/Bradanicline: 63.65%
30 nM fac
  YFP fluorescence quenching using Facinicline: 83.07
30 nM var, first column
  YFP fluorescence quenching using Varenicline: −0.688
30 nM var, second column
  YFP fluorescence quenching using Varenicline: 0.672
50 nM CNL001, first column
  YFP fluorescence quenching using CNL001: 80.221%
50 nM CNL001, second column
  YFP fluorescence quenching using CNL001: 81.789%
50 nM abt
  YFP fluorescence quenching using ABT-126: 23.65%
100 nM CNL001, first column
  YFP fluorescence quenching using CNL001: 82%
100 nM CNL001, second column
  YFP fluorescence quenching using CNL001: 80.766%
100 nM CNL002
  YFP fluorescence quenching using CNL002: 49.9%
100 nM abt
  YFP fluorescence quenching using ABT-126: 61.83%
100 nM azd0328
  YFP fluorescence quenching using AZD-0328: 80.55%
100 nM fac
  YFP fluorescence quenching using Facinicline: 85.36
300 nM abt
  YFP fluorescence quenching using ABT-126: 76.44%
300 nM azd0328
  YFP fluorescence quenching using AZD-0328: 83.15%
300 nM brd
  YFP fluorescence quenching using TC-5619/Bradanicline: 64.85%
300 nM fac
  YFP fluorescence quenching using Facinicline: 84.19
300 nM var, first column
  YFP fluorescence quenching using Varenicline: 75.189
300 nM var, second column
  YFP fluorescence quenching using Varenicline: 74.923
500 nM var, first column
  YFP fluorescence quenching using Varenicline: 79.048
500 nM var, second column
  YFP fluorescence quenching using Varenicline: 80.337
1 uM CNL001, first column
  YFP fluorescence quenching using CNL001: 81.707%
1 uM CNL001, second column
  YFP fluorescence quenching using CNL001: 82.665%
1 uM CNL002
  YFP fluorescence quenching using CNL002: 80.72%
1 uM abt
  YFP fluorescence quenching using ABT-126: 77.68%
1 uM tc6987
  YFP fluorescence quenching using TC-6987: 74.1
1 uM var, first column
  YFP fluorescence quenching using Varenicline: 79.766
1 uM var, second column
  YFP fluorescence quenching using Varenicline: 76.836
10 uM tc6987
  YFP fluorescence quenching using TC-6987: 81.7
30 uM CNL002
  YFP fluorescence quenching using CNL002: 80.97%
30 uM azd0328
  YFP fluorescence quenching using AZD-0328: 82.53%
30 uM fac
  YFP fluorescence quenching using Facinicline: 82.75
500 uM tc6987
  YFP fluorescence quenching using TC-6987: 80.18
TC-6683 30 nM
  percent quench of YFP fluorescence, 30 nM TC-6683: −17.99%
TC-6683 300 nM
  percent quench of YFP fluorescence, 300 nM TC-6683: −23.26%
TC-6683 3 uM
  percent quench of YFP fluorescence, 3 uM TC-6683: −18.84%
TC-6683 30 uM
  percent quench of YFP fluorescence, 30 uM TC-6683: −16.92%
TC-6683 100 uM
  percent quench of YFP fluorescence, 100 uM TC-6683: −15.59%
Acetylcholine 10 uM
  percent quench of YFP fluorescence, 10 uM ach: −2.63%
Acetylcholine 30 uM
  percent quench of YFP fluorescence, 30 uM ach: 30.06%
Acetylcholine 100 uM
  percent quench of YFP fluorescence, 100 uM ach: 71.27%
Acetylcholine 1 mM
  percent quench of YFP fluorescence, 1 mM ach: 79.66%
Acetylcholine 3 mM
  percent quench of YFP fluorescence, 3 mM ach: 74.9%
